# Source: patent US20230051701A1 (Bristol-Myers Squibb, published 2023)
# Changes are numbered by the printed parent chain. In names and notes the source's numbering stands. Several values for one entry are separate records, joined by “and”; a condition that tells them apart may be missing. Identical values can stand only once.
# T1: N-terminal domain of hCD73 (residues 26-336 of human CD73), His-tagged (human, UniProt P21589 26-336)
# T1 construct: also called N-hCD73; N-hCD73-his
# T1 sequence: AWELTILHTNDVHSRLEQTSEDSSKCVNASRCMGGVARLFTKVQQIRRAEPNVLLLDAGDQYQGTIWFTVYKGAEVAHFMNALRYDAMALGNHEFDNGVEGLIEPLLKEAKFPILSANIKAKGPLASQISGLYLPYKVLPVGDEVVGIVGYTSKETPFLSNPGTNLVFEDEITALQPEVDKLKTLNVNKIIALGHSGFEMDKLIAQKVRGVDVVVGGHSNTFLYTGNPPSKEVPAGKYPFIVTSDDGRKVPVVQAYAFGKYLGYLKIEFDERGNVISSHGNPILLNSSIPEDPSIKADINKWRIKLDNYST
# T2: human CD73 on cells (Calu6, NCI-H292, SK-MEL-24, human tumor cell lines, human B and T cells) (human, UniProt P21589 27-549)
# T2 sequence: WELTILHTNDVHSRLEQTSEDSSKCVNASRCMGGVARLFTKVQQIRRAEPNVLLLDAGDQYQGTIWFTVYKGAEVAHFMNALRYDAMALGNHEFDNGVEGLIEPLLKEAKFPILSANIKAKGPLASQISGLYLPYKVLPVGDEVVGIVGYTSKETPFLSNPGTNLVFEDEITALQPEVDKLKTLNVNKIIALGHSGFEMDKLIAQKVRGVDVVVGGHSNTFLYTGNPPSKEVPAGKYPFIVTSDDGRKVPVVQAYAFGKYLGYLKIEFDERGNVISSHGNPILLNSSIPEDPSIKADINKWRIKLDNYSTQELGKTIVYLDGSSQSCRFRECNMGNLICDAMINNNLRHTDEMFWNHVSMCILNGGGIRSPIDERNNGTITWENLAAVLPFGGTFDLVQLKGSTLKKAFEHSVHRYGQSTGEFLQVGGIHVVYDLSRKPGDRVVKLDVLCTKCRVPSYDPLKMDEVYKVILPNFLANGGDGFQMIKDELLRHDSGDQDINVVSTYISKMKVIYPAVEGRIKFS
# T3: rhCD73 bound to his-tag magnet beads (human, UniProt P21589 27-549, limits assumed)
# T3 sequence: T2 sequence
# B1: CD73.11-IgG2-C219S (antibody)
# heavy: QVQLVESGGGVVQPGRSLRLSCAASGFTFSNYGMHWVRQAPGKGLEWVAVIWYDESNKYYADSVKGRFTISRDNSKNTLFLQMNSLRAEDTAVYYCARGYNSRWYPDAFDIWGQGTMVTVSSASTKGPSVFPLAPCSRSTSESTAALGCLVKDYFPEPVTVSWNSGALTSGVHTFPAVLQSSGLYSLSSVVTVPSSNFGTQTYTCNVDHKPSNTKVDKTVERKSCVECPPCPAPPVAGPSVFLFPPKPKDTLMISRTPEVTCVVVDVSHEDPEVQFNWYVDGVEVHNAKTKPREEQFNSTFRVVSVLTVVHQDWLNGKEYKCKVSNKGLPAPIEKTISKTKGQPREPQVYTLPPSREEMTKNQVSLTCLVKGFYPSDIAVEWESNGQPENNYKTTPPMLDSDGSFFLYSKLTVDKSRWQQGNVFSCSVMHEALHNHYTQKSLSLSPG
# light: not shown
# notes: 4D4 variable regions; also called CD73.11-IgG2CS; mAb-CD73.11-Vh-hHC-IgG2-C219S
# B2: CD73.6-IgG2-C219S-IgG1.1f (antibody)
# heavy: QVQLVESGGGVVQPGRSLRLSCAASGFTFSNYGMHWVRQAPGKGLEWVAVILYDSSNKYYPDSVKGRFTISRDNSKNTLYLQMNSLRAEDTAVYYCARGGSSWYPDSFDIWGQGTMVTVSSASTKGPSVFPLAPCSRSTSESTAALGCLVKDYFPEPVTVSWNSGALTSGVHTFPAVLQSSGLYSLSSVVTVPSSNFGTQTYTCNVDHKPSNTKVDKTVERKSCVECPPCPAPPVAGPSVFLFPPKPKDTLMISRTPEVTCVVVDVSHEDPEVKFNWYVDGVEVHNAKTKPREEQYNSTYRVVSVLTVLHQDWLNGKEYKCKVSNKALPSSIEKTISKAKGQPREPQVYTLPPSREEMTKNQVSLTCLVKGFYPSDIAVEWESNGQPENNYKTTPPVLDSDGSFFLYSKLTVDKSRWQQGNVFSCSVMHEALHNHYTQKSLSLSPGK
# light: not shown
# notes: also called CD73.6-IgG2CS IgG1.1f
# B3: 4D4 (antibody, human IgG2, kappa)
# heavy: QVQLVESGGGVVQPGRSLRLSCAASGFTFSNYGMHWVRQAPGKGLEWVAVIWYDESNKYYADSVKGRFTISRDNSKNTLFLQMNSLRAEDTAVYYCARGYNSRWYPDAFDIWGQGTMVTVSSASTKGPSVFPLAPCSRSTSESTAALGCLVKDYFPEPVTVSWNSGALTSGVHTFPAVLQSSGLYSLSSVVTVPSSNFGTQTYTCNVDHKPSNTKVDKTVERKCCVECPPCPAPPVAGPSVFLFPPKPKDTLMISRTPEVTCVVVDVSHEDPEVQFNWYVDGVEVHNAKTKPREEQFNSTFRVVSVLTVVHQDWLNGKEYKCKVSNKGLPAPIEKTISKTKGQPREPQVYTLPPSREEMTKNQVSLTCLVKGFYPSDIAVEWESNGQPENNYKTTPPMLDSDGSFFLYSKLTVDKSRWQQGNVFSCSVMHEALHNHYTQKSLSLSPGK
# light: not shown
# notes: IgG2 from hybridoma; also called 4D4-1
# B4: 10D2 (antibody, human IgG4, kappa, V domains shown)
# VH: QVQLVESGGGVVQPGRSLRLSCAASGFTFSNYGLHWVRQAPGKGLEWVAVIRYDGSNKYYADSVKGRFTISRDNSKNTLYLQMSSLRAEDTAVYYCARGGSSWYPDGLDVWGQGTTVTVSS
# VL: DIQMTQSPSSLSASVGDRVTITCRASQGISSWLAWYQQKPEKAPKSLIYAASSLQSGVPSRFSGSGSGTDFTLTISSLQPEDFATYYCQQYNSYPLTFGGGTKVEIKR
# notes: also called 10D2-2
# B5: 24H2 (antibody, human IgG4, kappa, V domains shown)
# VH: B4 VH with L34M, R52W, S56G, Y80F, S84N, G107A, L108F, V110I, T116M
# VL: B4 VL
# notes: also called 24H2-1
# B6: CD73.4-IgG2.5G1-KH (antibody)
# heavy: B2 heavy with S55G, C135S, S223C, S330A, S331P
# light: not shown
# B7: CD73.4-IgG2.3G1-KH (antibody)
# heavy: B2 heavy with S55G, S330A, S331P
# light: not shown
# B8: CD73.4-IgG2.5G1.1f-KH (antibody)
# heavy: B2 heavy with S55G, C135S, S223C
# light: not shown
# B9: CD73.4-IgG2.5 (antibody)
# heavy: QVQLVESGGGVVQPGRSLRLSCAASGFTFSNYGMHWVRQAPGKGLEWVAVILYDGSNKYYPDSVKGRFTISRDNSKNTLYLQMNSLRAEDTAVYYCARGGSSWYPDSFDIWGQGTMVTVSSASTKGPSVFPLAPSSRSTSESTAALGCLVKDYFPEPVTVSWNSGALTSGVHTFPAVLQSSGLYSLSSVVTVPSSNFGTQTYTCNVDHKPSNTKVDKTVERKCCVECPPCPAPPVAGPSVFLFPPKPKDTLMISRTPEVTCVVVDVSHEDPEVQFNWYVDGVEVHNAKTKPREEQFNSTFRVVSVLTVVHQDWLNGKEYKCKVSNKGLPAPIEKTISKTKGQPREPQVYTLPPSREEMTKNQVSLTCLVKGFYPSDIAVEWESNGQPENNYKTTPPMLDSDGSFFLYSKLTVDKSRWQQGNVFSCSVMHEALHNHYTQKSLSLSPGK
# light: not shown
# B10: CD73.4-IgG2.3-plusTHT (antibody)
# heavy: QVQLVESGGGVVQPGRSLRLSCAASGFTFSNYGMHWVRQAPGKGLEWVAVILYDGSNKYYPDSVKGRFTISRDNSKNTLYLQMNSLRAEDTAVYYCARGGSSWYPDSFDIWGQGTMVTVSSASTKGPSVFPLAPCSRSTSESTAALGCLVKDYFPEPVTVSWNSGALTSGVHTFPAVLQSSGLYSLSSVVTVPSSNFGTQTYTCNVDHKPSNTKVDKTVERKSCVETHTCPPCPAPPVAGPSVFLFPPKPKDTLMISRTPEVTCVVVDVSHEDPEVQFNWYVDGVEVHNAKTKPREEQFNSTFRVVSVLTVVHQDWLNGKEYKCKVSNKGLPAPIEKTISKTKGQPREPQVYTLPPSREEMTKNQVSLTCLVKGFYPSDIAVEWESNGQPENNYKTTPPMLDSDGSFFLYSKLTVDKSRWQQGNVFSCSVMHEALHNHYTQKSLSLSPGK
# light: not shown
# B11: CD73.4-IgG2.3-plusGGG (antibody)
# heavy: B10 heavy with T227G, H228G, T229G
# light: not shown
# B12: CD73.4-IgG2.5-plusTHT (antibody)
# heavy: B10 heavy with C135S, S223C
# light: not shown
# B13: 4C3 (antibody, human IgG1, kappa, V domains shown)
# VH: EVQLVESGGGLVQPGRSLRLSCAASGFTFDDYAMHWVRQAPGKGLEWVSGISWKSGSIGYADSVKGRFTISRDNAKNSLYLQMNSLRAEDTALYYCVKGYYVILTGLDYWGQGTLVTVSS
# VL: not shown
# notes: IgG1za from hybridoma; also called 4C3-1
# Molecular target: T1, N-terminal domain of hCD73 (residues …)
# Assay: SPR, mAb captured on protein A
# Protocol: For these experiments, protein A (Pierce) was immobilized to a density of 3000 — 4000 RU on flow cells 1-4 of a CM5 sensor chip (GE Healthcare) using standard ethyl(dimethylaminopropyl) carbodiimide (EDC)/N-hydroxysuccinimide (NHS) chemistry, with ethanolamine blocking, in a running buffer of 0.01 M HEPES pH 7.4, 0.15 M NaCl, 3 mM EDTA, 0.005% v/v tween 20. […] The running buffer for the kinetic experiments was 10 mM sodium phosphate, 130 mM sodium chloride, 0.05% tween 20, pH 7.1. The surfaces were regenerated after each cycle using two 30 s pulses of 10 mM glycine pH 1.5 at a flow rate of 30 μl/min. Sensogram data was double-referenced and then fitted to a 1:1 Langmuir model using Biacore T100 evaluation software v2.0.4, to determine the association rate constant (ka), the dissociation rate constant (kd), and the equilibrium dissociation constant (KD).
Binder,Kd,koff,kon
B1,3.5 nM and 6.5 nM,0.00028 s⁻¹ and 0.00051 s⁻¹,80000 M⁻¹ s⁻¹ and 79000 M⁻¹ s⁻¹
B2,0.72 nM,0.00022 s⁻¹,300000 M⁻¹ s⁻¹
B3,9.4 nM and 6.2 nM,0.00077 s⁻¹ and 0.00049 s⁻¹,82000 M⁻¹ s⁻¹ and 79000 M⁻¹ s⁻¹
B4,1.6 nM,0.00095 s⁻¹,610000 M⁻¹ s⁻¹
B5,14 nM,0.0032 s⁻¹,230000 M⁻¹ s⁻¹

# Molecular target: T2, human CD73 on cells (Calu6, NCI-H292, …)
# Assay: cell-based or functional assay
Binder,"CD73 Inhibition EC50(nM), cAMP assay, Calu6 [nM]","CD73 Inhibition S:B, cAMP assay, Calu6"
B6,0.44,42
B7,1.7,52
B8,0.87,45
B9,2.17,51
B10,,33
B11,1.26,
B12,0.9,44

# Molecular target: T2, human CD73 on cells (Calu6, NCI-H292, …)
# Assay: cell-based or functional assay
# Remark: another data set of the same source
Binder,"EC50 (nM), CD73 internalization, Calu6, 2 h [nM]","Ymax, CD73 internalization, Calu6, 2 h"
B3,0.38,104 % of 100 nM 11F11
B4,,29 % of 100 nM 11F11
B5,8.2,51 % of 100 nM 11F11

# Molecular target: T2, human CD73 on cells (Calu6, NCI-H292, …)
# Assay: binding titration on Calu6 cells, average of 2-6 experiments
# Protocol: Titration binding curves were produced with CD73 antibodies on Calu6 (CD73 endogenous expressors; human pulmonary adenocarcinoma cell line), DMS114 (CD73 negative; human small cell lung cancer cell line), CHO-cynoCD73 (cynoCD73-transfected) and CHO-K1 (cynoCD73 negative), cells using Alexa Fluor® 647 Goat Anti-Human IgG (H+L) as a secondary antibody, Invitrogen Cat#A-21445, using the following method: 100000 cells were plated in 100 uL PBS+2% FBS per well and blocked for 20 min. Using a U-bottom 96-deep well plate, volumes of antibody and PBS+2% FBS were combined as dictated by Table 12 below.
# An 8-point serial dilution was performed by diluting a sixth of the volume (90 uL) into 450 μL PBS+2% FBS. The cell plate was spun down for 5 minutes at 1500 rpm. 100 uL of diluted antibody was added per well of the plate. 100 uL PBS+2% FBS were added to all other wells. […] The plates were spun down at 1500 rpm for 5 min and washed in 200 uL PBS +2% FBS per well. The plates were washed again, resuspended in 200 uL 2% FBS in PBS per well and the samples were run.
row,Binder,EC50 [nM]
1,B3,0.82

# Molecular target: T3, rhCD73 bound to his-tag magnet beads
# Assay: cell-based or functional assay
row,Binder,"EC50 (nM), inhibition of bead-bound rhCD73 enzymatic activity [nM]"
1,B3,5.31
2,B4,6.94
3,B5,4.18

# Molecular target: T2, human CD73 on cells (Calu6, NCI-H292, …)
# Assay: cell-based or functional assay
# Remark: another data set of the same source
row,Binder,"Ymax, cAMP HTRF assay"
1,B13,80 % of 100 nM 11F11
